Source: the supplement of paper PMC10567573

B1: CCDC6 (parent)
chain: FTPPTSLTRAGMSYYNSPGLHVQH

Variants of: B1
Experiment: protein stability index of a GFP-peptide fusion (GPS, HEK-293T) (PSI 1-6); higher = more stable
Conditions: c terminus: a fixed tail appended
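Note: lentivirally expressed fusions sorted by FACS into six bins by GFP to DsRed ratio, PSI derived from sequencing read proportions per bin multiplied by bin number.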

Protein stability index, by site and new letter:
A10: D 1.37 | P 1.91 | M 1.9 | L 1.2 | W 3.03 | R 2.22 | Q 2 | V 1.98 | H 2.09 | Y 2.72 | S 2.06 | T 1.68 | I 1.75 | N 2.23 | F 2.33 | K 2.01 | E 2.15
S6: Q 2.21 | R 2.47 | I 2.2 | F 2.98 | N 1.84 | A 1.51 | V 2.1 | T 1.73 | Y 1.84 | L 2.45 | K 1.51 | G 2 | C 2.1 | M 1.65 | E 1.91 | H 1.66 | W 2.27 | D 1.79
T5: N 1.81 | R 1.96 | M 2.42 | H 1.72 | S 1.84 | D 1.89 | C 1.74 | G 2.07 | F 1.69 | E 2.29 | L 2.29 | P 1.68 | V 2.01 | A 2 | I 1.84 | Q 1.53 | K 1.54 | Y 1.01
T8: P 2.46 | G 2.06 | H 1.56 | W 1.78 | D 1.82 | N 2.06 | A 1.76 | L 1.78 | M 1.92 | V 1.85 | F 2.56 | K 1.46 | S 1.83 | Y 1.5 | I 2.14 | Q 2.53 | C 2.73 | E 1.41
R9: Q 2.54 | V 1.58 | T 1.47 | D 2.77 | A 2.1 | K 1.71 | F 2.94 | I 1.45 | C 2.58 | E 2.63 | Y 3.32 | S 1.79 | N 1.65 | M 1.81 | G 1.59 | H 1.27 | L 2.82
L7: Q 2.38 | R 2.04 | V 1.56 | E 2.12 | H 2.28 | N 1.7 | K 2.59 | P 2.33 | Y 2.39 | F 2.4 | I 1.41 | T 1.89 | M 2.29 | G 1.66 | W 2.33 | D 1.62 | S 1.7 | A 2.21 | C 2.61
G11: S 2.23 | V 1.56 | R 1.68 | M 1.91 | F 1.68 | N 2.46 | Y 2.12 | A 1.96 | T 2.17 | Q 1.98 | C 1.71 | L 1.97 | I 1.49 | D 1.75 | E 1.84 | H 1.69 | K 1.19
S13: D 1.43 | M 1.34 | W 1.3 | C 1.55 | E 1.9 | P 1.96 | I 1.69 | V 1.97 | H 1.67 | G 1.39 | Y 1.86 | T 1.39 | N 1.77 | L 1.73 | A 2.18 | K 2.11 | F 2.54 | R 1.87
Y14: F 1.94 | C 1.93 | E 2.73 | A 2.09 | D 3.09 | G 2.31
M12: Y 1.71 | W 2.4 | R 1.79 | A 1.84 | L 2.21 | E 2.29 | I 2.02 | S 2 | N 2.12 | Q 1.73 | H 2.33 | T 2.16 | P 2.56 | V 1.99 | F 1.58 | C 1.68 | D 2.19 | G 1.57 | K 2.2
